Like-named read-outs stand apart in the source and are kept apart here.

Our source for the half-time of dissociation and koff values is PMC2754851.

Common to all, as to assay: pull-down
Experiment [1] concerns the target Doc1-4A APC/C (S. cerevisiae) (UniProt P53886).
Experiment [2] concerns the target Cdc27-A2 APC/C (APC/C with Cdc27 L579A) (S. cerevisiae) (UniProt P53886).
Experiment [3] addresses Doc1-4A APC/C (S. cerevisiae) (UniProt P53886). This is another data set of the same source.

Sequence of Doc1-4A APC/C (S. cerevisiae) (P53886 whole entry, looked up): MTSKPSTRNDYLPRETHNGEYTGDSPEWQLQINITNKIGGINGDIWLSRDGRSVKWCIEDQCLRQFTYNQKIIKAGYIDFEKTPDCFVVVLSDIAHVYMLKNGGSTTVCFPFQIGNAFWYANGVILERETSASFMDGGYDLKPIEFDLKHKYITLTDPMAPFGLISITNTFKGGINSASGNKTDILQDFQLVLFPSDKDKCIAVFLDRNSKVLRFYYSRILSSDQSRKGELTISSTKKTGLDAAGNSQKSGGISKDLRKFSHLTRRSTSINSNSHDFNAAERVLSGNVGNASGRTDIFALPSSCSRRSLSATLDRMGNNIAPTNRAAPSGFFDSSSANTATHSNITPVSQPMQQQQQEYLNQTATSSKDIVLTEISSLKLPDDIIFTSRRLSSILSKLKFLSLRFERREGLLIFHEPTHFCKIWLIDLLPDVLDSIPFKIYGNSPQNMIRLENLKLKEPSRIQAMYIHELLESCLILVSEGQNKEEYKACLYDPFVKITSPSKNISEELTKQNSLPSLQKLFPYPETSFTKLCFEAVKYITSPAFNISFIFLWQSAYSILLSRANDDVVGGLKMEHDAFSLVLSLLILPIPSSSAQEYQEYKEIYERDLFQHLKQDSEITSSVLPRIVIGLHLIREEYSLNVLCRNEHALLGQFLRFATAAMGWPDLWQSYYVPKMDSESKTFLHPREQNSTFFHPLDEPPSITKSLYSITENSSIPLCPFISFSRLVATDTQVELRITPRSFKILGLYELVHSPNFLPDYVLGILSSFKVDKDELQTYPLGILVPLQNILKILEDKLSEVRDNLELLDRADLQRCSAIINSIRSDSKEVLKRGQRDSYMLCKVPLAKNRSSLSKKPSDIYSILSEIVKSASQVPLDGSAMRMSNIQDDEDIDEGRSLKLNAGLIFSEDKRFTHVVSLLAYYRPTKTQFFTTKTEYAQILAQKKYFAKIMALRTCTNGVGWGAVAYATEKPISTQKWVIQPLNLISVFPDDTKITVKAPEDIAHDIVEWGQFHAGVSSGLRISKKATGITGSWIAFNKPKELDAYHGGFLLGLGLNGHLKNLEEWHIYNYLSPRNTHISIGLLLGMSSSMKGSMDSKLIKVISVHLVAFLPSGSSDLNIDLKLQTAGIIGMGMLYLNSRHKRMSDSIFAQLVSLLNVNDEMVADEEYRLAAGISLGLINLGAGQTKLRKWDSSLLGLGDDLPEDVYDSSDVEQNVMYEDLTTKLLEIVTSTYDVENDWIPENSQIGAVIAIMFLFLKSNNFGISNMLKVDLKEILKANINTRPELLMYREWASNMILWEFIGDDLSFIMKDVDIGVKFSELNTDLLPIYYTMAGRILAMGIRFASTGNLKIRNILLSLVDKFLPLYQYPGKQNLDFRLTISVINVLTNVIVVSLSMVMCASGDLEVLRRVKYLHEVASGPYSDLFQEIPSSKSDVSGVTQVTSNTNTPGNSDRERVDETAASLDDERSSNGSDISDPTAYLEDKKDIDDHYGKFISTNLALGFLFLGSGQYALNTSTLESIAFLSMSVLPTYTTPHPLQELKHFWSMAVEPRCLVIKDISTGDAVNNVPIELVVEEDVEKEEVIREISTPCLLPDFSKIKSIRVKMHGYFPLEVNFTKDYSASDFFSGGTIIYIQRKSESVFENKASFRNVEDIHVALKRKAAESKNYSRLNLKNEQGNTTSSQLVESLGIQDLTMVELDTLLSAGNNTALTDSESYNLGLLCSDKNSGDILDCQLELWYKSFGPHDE

B1: in vitro translated Cdh1 (natural protein)
chain: MSTNLNPFMNNTPSSSPLKGSESKRVSKRPISSSSSASLLSSPSRRSRPSTVYGDRYIPSRTDIDFNSIVSISSMASVPALNPSSTEDQVEYQKERQAHETYNTLLKNELFGEMLSKDTVGSESSIDRIKNTRPSTRGNVHAENTTRHGYELERVSTPPPEAAGLEEFSPHSTPVTPRRLFTSQQDEITRPSSNSVRGASLLTYQQRKGRRLSAASLLQSQFFDSMSPVRPDSKQLLLSPGKQFRQIAKVPYRVLDAPSLADDFYYSLIDWSSTDVLAVALGKSIFLTDNNTGDVVHLCDTENEYTSLSWIGAGSHLAVGQANGLVEIYDVMKRKCIRTLSGHIDRVACLSWNNHVLTSGSRDHRILHRDVRMPDPFFETIESHTQEVCGLKWNVADNKLASGGNDNVVHVYEGTSKSPILTFDEHKAAVKAMAWSPHKRGVLATGGGTADRRLKIWNVNTSIKMSDIDSGSQICNMVWSKNTNELVTSHGYSKYNLTLWDCNSMDPIAILKGHSFRVLHLTLSNDGTTVVSGAGDETLRYWKLFDKPKAKVQPNSLIFDAFNQIR
modifications: 35S label
Regarding B1, the half-time of dissociation turned out to be 20 min in experiment [1], 10 min in experiment [2] and 22 min in experiment [3]. In addition, the koff – broadly, the first-order rate constant of dissociation – in experiment [2] turned out to be 0.0011 s⁻¹.
